Publication PMC10635376, “New insights into the mechanism and DNA-sequence specificity of INO80 chromatin remodeling” (Research Square, 2023)

Biological target: Recombinant Xenopus laevis histone octamer reconstituted into 70N5 mononucleosomes (Xenopus laevis)
Assay: native gel or EMSA; 70N5 601 nucleosomes with photo-reactive DNA bound with saturating INO80 at 30 C for 30 min; extent of binding on 4% native polyacrylamide gels

percent of nucleosomes bound: > 90%
Substance: Native wild-type Saccharomyces cerevisiae INO80 complex (from UniProt P53115 1-1489; P53946 1-755; P32617 1-166; P40154 1-320; Q12386 1-881; P80428 1-489; P60010 1-375)
